This series can be described thus: yeast display, Sf9 membrane polyspecificity reagent, FACS + sequencing; frameworks hold sequencing errors. In outline:
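Galactose induction of a Saccharomyces cerevisiae BJ5465 synthetic nanobody display library ran 36–48 hours. The cells were then stained for 1 hour at 4 °C with 10% biotinylated, detergent-solubilized Sf9 membrane reagent, pulled down on streptavidin microbeads and FACS-sorted into low and high (top ~1%) gates on expression and reagent-binding fluorescence. Labels for polyreactivity follow the gate of origin.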
As for “QVQLVESGGGLVQAGGSLRLSCAASGSALYAMGWYRQAPGKEMELVADISRRGGSTFYADSVKGRFTISRDKAKNTVYLQMNSLKPEDTAVYYCAAEFITYHGDDHYYWGQGTQVTVSS”, the “polyreactivity (PSR sort gate)” value is “low polyreactivity”.

“QVQLVESGGGLVQAGGSLRLSCAASGSFFHDYSMGWYRQAPGKERELVAAIRWSGGSTYYADSVKGRFTISRDNAKNTVYVQMNSLKPEDTAVYYCNAVTFGRDNVQLVKFGYWGQGTQVTVSS”: the “polyreactivity (PSR sort gate)” value was “low polyreactivity”.

As for “QVQLVESGGGLVQAGGSLRLSCAASGSIARNAMGWYRQAPGKERELVATISSGGGTYYADSVKGRFTISRDNAKNTVYLQMHSLKPEDTAVYYCAADGWEVPWPAIWDSLYEYWGQGTQVTVSS”, the “polyreactivity (PSR sort gate)” value was “high polyreactivity”.

Turning to “QVQLVESGGGLVQAGGSLRLSCAASGSICGRYAMGWYRQAPGKDRELVAAIRWRSGSTYYADSVKGRFTISRDNAKNSVYLHMNSLKPEDTAVYYCAVQRSYVGPRQYNYWGQGTQVTVSS”, the “polyreactivity (PSR sort gate)” value is reported as “high polyreactivity”.

For the sequence “QVQLVESGGGLVQAGGSLRLSCAASGSICWIYAMGWYRQAPGKERELVAAINVGGGSTYYADSVKGRFTISRDNAKNTVYLQMNSLKPEDTAVYYCAKGYQSPYKSQGYEYDYWGQGTQVTVSS”, the “polyreactivity (PSR sort gate)” value is reported as “low polyreactivity”.

In the case of “QVQLVESGGGLVQAGGSLRLSCAASGSIDNIYAMGWYRQAPGKERELVATITGIADSTYYADSVKGRFTISRDNAKNTVFLQMNSLKPEDTAVYYCAADKYVAEYDYWGQGTQVTVSS”, the “polyreactivity (PSR sort gate)” value was “low polyreactivity”.

As for “QVQLVESGGGLVQAGGSLRLSCAASGSIFAAYAMGWYRQAPGKERELVAAISDRGGSTYYADSVKGRFTISRDNAKNTVYLQMNSLKPEDTAVYYCATSVYDVRGGPFYYWGQGTQVTVSS”, the “polyreactivity (PSR sort gate)” value was “high polyreactivity”.

Regarding “QVQLVESGGGLVQAGGSLRLSCAASGSIFADNAMGWYRQAPGKERELVAAITRGGSTYYADSVKGRFTISRDNAKNTVYLQMNSLKPEDTAVYYCAAGTTTYSVNEVPVREGYDYWGQGTQVTVSS”, the “polyreactivity (PSR sort gate)” value was “low polyreactivity”.

Take “QVQLVESGGGLVQAGGSLRLSCAASGSIFADYAMGWYRQAPGKERELVAAISYNGDSTYYADSVKGRFTISRDNAKNTVYLQMNSLKPEDTAVYYCNAAARRYTSVFYTSGYTFDYWGQGTQVTVSS”: the “polyreactivity (PSR sort gate)” value is listed as “low polyreactivity”.

Regarding “QVQLVESGGGLVQAGGSLRLSCAASGSIFADYAMGWYRQAPGKERELVAAITGSGGRTYYADSVKGRFTISRDNAKNTVYLQMNSLKPEDTAVYYCAAEGTTWYYDMDYWGQGTQVTVSS”, the “polyreactivity (PSR sort gate)” value is “low polyreactivity”.

“QVQLVESGGGLVQAGGSLRLSCAASGSIFADYAMGWYRQAPGKERELVAVISRRGGTTYYADSVKGRFTISRDNAKNTVYLQMNSLKTEDTAVYYCAARRSFNEYDYWGQGSQVTVSS”: the “polyreactivity (PSR sort gate)” value is “high polyreactivity”.

As for “QVQLVESGGGLVQAGGSLRLSCAASGSIFADYTMGCYRQAPGKERELVAAITGGGGRTYYADSVKGRFTISRDNAKNTVYLQMNSLKPEDTAVYYCAADFHDDHTSFDYWGQGTQVTVSS”, the “polyreactivity (PSR sort gate)” value is listed as “low polyreactivity”.

Turning to “QVQLVESGGGLVQAGGSLRLSCAASGSIFADYTMGWYRQAPGKERELVAAISSDDSTYYADSVKGRFTISRDNAKNTVYLQMNSLKPEDTAVYYCNADGSIGPEEYWGQGTQVTVSS”, the “polyreactivity (PSR sort gate)” value is recorded as “low polyreactivity”.

In the case of “QVQLVESGGGLVQAGGSLRLSCAASGSIFADYVMGWYRQAPGKERELVAAITRRGRTYYADSVKGRFTISRDNAKNTVYLQMNSLIPEDTAVYYCAKVASGKIDSWGQGTQVTVSS”, the “polyreactivity (PSR sort gate)” value is listed as “low polyreactivity”.

Turning to “QVQLVESGGGLVQAGGSLRLSCAASGSIFAFYAMGWYRQAPGKERELVAVISVSDGSTYYADSVKGRFTISRDNAKNTVYLQMKSLKAEDTAVYYCAATPRGSYGYYYWGQGTQVTVSS”, the “polyreactivity (PSR sort gate)” value is on record as “low polyreactivity”.

In the case of “QVQLVESGGGLVQAGGSLRLSCAASGSIFAGNAMGWYRQAPGRERELVAGITFGDDSTYYADSVKGRFTISRDNAKNTVYLQMNSLKPEDTAVYYCATDMHPYNYYFYHYWVDAAYDYWGQGTQVTVSS”, the “polyreactivity (PSR sort gate)” value is “low polyreactivity”.

For “QVQLVESGGGLVQAGGSLRLSCAASGSIFAGNTMGWYRQAPGKERELVARMTRAGSTYYADSVKGRFTITRDNAKNTVYLQMNSLKPEDTAVYYCASGPTGSLYRYYYWGQGSQVTVSS”, the “polyreactivity (PSR sort gate)” value is “high polyreactivity”.

For the sequence “QVQLVESGGGLVQAGGSLRLSCAASGSIFAGYAMGWYRQAPGKERELVATITSGGSTNYADSVKGRFTISRDNAKNTVYFHMNSLKPEVTAVYYCAADVEDSIPSSYTGGEYDYWGQCTQVTVSS”, the “polyreactivity (PSR sort gate)” value is given as “low polyreactivity”.

With “QVQLVESGGGLVQAGGSLRLSCAASGSIFAINAMGWYRQAPGKERELVARISWSGGRTYYADSVKVRFTISRDNAKNTVYLQMNSLKPEDTAVYYCAKRYYKSLNRDEFDSWGQGTQGTVSS”, the “polyreactivity (PSR sort gate)” value was “high polyreactivity”.

As to “QVQLVESGGGLVQAGGSLRLSCAASGSIFAKNAMGWYRQAPGKERELVAAITFIGGDTYYADSVKGRFTISRDNAKNTVYLQMNSLKPEDTAVFYCNRALLVTSIYPYLFGSGWYDYWGQGTQVTVSS”, the “polyreactivity (PSR sort gate)” value was “low polyreactivity”.

In the case of “QVQLVESGGGLVQAGGSLRLSCAASGSIFAKNAMGWYRQAPGKERELVAGIDFSGGSTYYADSVKGRFTLSRDNAKNTVYLQMNSLKPEDTAVYYCAADWAYKYELDYWGQGTQLTVSS”, the “polyreactivity (PSR sort gate)” value is listed as “low polyreactivity”.

For the sequence “QVQLVESGGGLVQAGGSLRLSCAASGSIFAKYAMGWYRQAPGKERELVAAISSGGSTYYADSVKGRFTISRDNAKNTVYLQMNSLKPEDTAVYYCNKPYGKETRYTFKVWYEYNYWGQGTQVTVSS”, the “polyreactivity (PSR sort gate)” value is “low polyreactivity”.

Take “QVQLVESGGGLVQAGGSLRLSCAASGSIFANAMGWYRQAPGKEREVVAAISFSGGRTFYADSVKGRFTISRDNAKNTVYLQMNSLKPEDTAVYYCAKGKKSSRSGIYNYWGQGTQVTVSS”: the “polyreactivity (PSR sort gate)” value is given as “high polyreactivity”.

Consider “QVQLVESGGGLVQAGGSLRLSCAASGSIFANNGMGWYRQAPGKERELVARISKRGGSTYYADSVKGRFTFSRDNAKNTVYLQMNSLKPEDTAVYYCNVRSWWGYTGPYDYWGQGTQVTVSS”, for which the “polyreactivity (PSR sort gate)” value is on record as “high polyreactivity”.

“QVQLVESGGGLVQAGGSLRLSCAASGSIFANYAMGWYRQAPGKERELVAAISRGGGTTYYADSVKGRFTISRDNAKNTVYLQMNSLKPEDTAVYYCAAARRYATQFHYDSWGQGTQVTVSS”: the “polyreactivity (PSR sort gate)” value is recorded as “high polyreactivity”.

As to “QVQLVESGGGLVQAGGSLRLSCAASGSIFAPYAMGRYRQAPGKERELVAAISTTGGTTYYADSVKGRFTISRDNAKNTVYLQMNSLKPEDTAVYYCAADWSESFGKGGDYWGQGTQVTVSS”, the “polyreactivity (PSR sort gate)” value is “low polyreactivity”.

In the case of “QVQLVESGGGLVQAGGSLRLSCAASGSIFAPYAMGWYRQAPGKERELVAAISSSGGSTYYADSVKGRFTISRDNAKNTLYLQMNSLKPEDTAVYYCAAETYHGLYDYWGQGTQVTVSS”, the “polyreactivity (PSR sort gate)” value is recorded as “low polyreactivity”.

Consider “QVQLVESGGGLVQAGGSLRLSCAASGSIFAQYTMGWYRQAPGKERELVAVISINGVSTYYADSVKGRFTISRDNAKNTVYLQMNSLKPEDTAVYYCNAGISPYEALGYWGQGTQVTVSS”, for which the “polyreactivity (PSR sort gate)” value is “low polyreactivity”.

Regarding “QVQLVESGGGLVQAGGSLRLSCAASGSIFARNAMGWYRPAPGKERELVAVITTGGRTYYADSVKGRFTISRDNAKNTVYLQMNSLKPEDTAVYYCATRVIYGHSGGYWGQGTQVTVSS”, the “polyreactivity (PSR sort gate)” value is “high polyreactivity”.

As for “QVQLVESGGGLVQAGGSLRLSCAASGSIFARNAMGWYRQAPGKERELVAAITWGGGITYYADSVKGRFTISRDNAKNTVYLQMNSLKPEDTAVYYCATDGYSYFTDRLDYWGQGTQVTVSS”, the “polyreactivity (PSR sort gate)” value is recorded as “low polyreactivity”.

On to “QVQLVESGGGLVQAGGSLRLSCAASGSIFARNAMGWYRQAPGKERELVASITWSGASTYYADSVKGRFTISRDNAKNTVYLQMNSLKPADTSFYYSAATDQNLSLDYSSYEYRGQGTQVTVSS”, for which the “polyreactivity (PSR sort gate)” value is “low polyreactivity”.

Consider “QVQLVESGGGLVQAGGSLRLSCAASGSIFARNAMGWYRQAPGKERELVASITWSGASTYYADSVKGRFTISRDNAKNTVYLQMNSLKPEDTAVYYCAATDQKLSLDYSSYEYWGQGTQVTVSS”, for which the “polyreactivity (PSR sort gate)” value is recorded as “low polyreactivity”.

Consider “QVQLVESGGGLVQAGGSLRLSCAASGSIFARYAMGWDRQAPGKERELVAAISSRGGSTYYADSVKGRFTISRDNAKNTVYLQMNSLKPADTAVYYCNKGYLVRQGDYWGQGTQVTVSS”, for which the “polyreactivity (PSR sort gate)” value is recorded as “high polyreactivity”.

As for “QVQLVESGGGLVQAGGSLRLSCAASGSIFARYAMGWYRQAPGKERELVAAIDQSAGSTYYADSVKGRFTISRDNAKNTVYLQMNSLKPEDTAVYYCNADYWYWWVITYVGPGLGYWGQGTQVTVSS”, the “polyreactivity (PSR sort gate)” value is listed as “high polyreactivity”.

In the case of “QVQLVESGGGLVQAGGSLRLSCAASGSIFARYAMGWYRQAPGKERELVAAISSNSASTYYADSVKGRFTISRDNAKNTVYLQMNSLKPEDTAVYYCATAYRSYWLTDYSGQGTQVTVSS”, the “polyreactivity (PSR sort gate)” value is “low polyreactivity”.

For “QVQLVESGGGLVQAGGSLRLSCAASGSIFARYTMGGYRPAPGKASELVAAISTSGSRTYYADSVKGRFTISRDNAKKTVYLQRYSLKPEDTAVYFCAARNGGRYAPGLDYWGQGTQVTVSS”, the “polyreactivity (PSR sort gate)” value is given as “high polyreactivity”.

In the case of “QVQLVESGGGLVQAGGSLRLSCAASGSIFARYTMGWYRQAPGKERELVAAISSSGTSTYYADSVKGRFTISRDNAKNTVYLQMNSLKPEDTAVYYCAADWYYHYGYWGQGTQVTVSS”, the “polyreactivity (PSR sort gate)” value is given as “high polyreactivity”.

In the case of “QVQLVESGGGLVQAGGSLRLSCAASGSIFARYVMGWYRQAPGKERELVAAISRGGRTKYADSVKGRFTISRDNAKNTVYLQMNSLKPEDTAVYYCAAEPFNGRTDLDYWGQGTQVTVSS”, the “polyreactivity (PSR sort gate)” value was “high polyreactivity”.

As to “QVQLVESGGGLVQAGGSLRLSCAASGSIFASNAMGWYRQAPGKEREFVAAITWRTDRTYYADSVKGRFTISRDNAKNTVYLQMNSLKPEDNAVYYCAADTWFDRFYYWGQGTQVTVSS”, the “polyreactivity (PSR sort gate)” value is reported as “high polyreactivity”.

Regarding “QVQLVESGGGLVQAGGSLRLSCAASGSIFASNAMGWYRQAPGKERELVAAINSGDSTNYADSVKGRFTISRDNAKNTVYFQMNSLKPEDTAVYYCARGLEERYDYWGQGTQVTVSS”, the “polyreactivity (PSR sort gate)” value is “low polyreactivity”.

(Values after the nanobody polyreactivity screen of Harvey et al. (2022).)
